System: PARP1
Experiment: fluorescence polarization
Conditions: EMSA: 20 mM Hepes pH 7.8, 150 mM NaCl, 2 mM MgCl2, 0.5 mM TCEP, 0.05 mg/ml BSA; TIRF same salts with 1 mg/ml BSA, 1 mg/ml beta-casein, 500 nM SYTOX Orange …

Substance: DNA dumbbell containing a SSB
- Kd: 71 nM

From publication PMC8357241
